Here are results for 41 sequences from the nanobody polyreactivity screen of Harvey et al. (2022).

A short description of the series: yeast display, Sf9 membrane polyspecificity reagent, FACS + sequencing; frameworks hold sequencing errors. The method in brief: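 Polyreactivity labels are assigned by the sorting gate from which each nanobody was recovered. The gates were low and high (top ~1%), set on anti-HA fluorescence for expression and streptavidin fluorescence for reagent binding. Before sorting, galactose-induced (36–48 hours) yeast display cells were stained for 1 hour at 4 °C with 10% biotinylated, detergent-solubilized Sf9 membrane reagent.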
On to “QVKLVESGVGLVQAGGSLRLSCAASGSTLTRNAMGWYRQAPGKERELVAAITQRGGSTYYADSVKGRFTLSRDNAKNTVYLQMNSLKPEDTAVYYCNVRAFHKQYSEYDYWGQGTQVTVSS”, for which the “polyreactivity (PSR sort gate)” value was “high polyreactivity”.
The entry for “QVQLVESGGGLFQAGGSLRITCAASGITFSYNAMGWYRQAPGKVRELVAGITWSGGSTYYADSVTGRFTISRDNAKNTVYLQMYSVKREDTAVYYCAASRSFPGYGLYYYWGQGTQVTVSS” is “low polyreactivity”.
The entry for “QVQLVESGGGLVQAGGSLRLSCAASGITIWNNAMGWSRQAPGKESELVATISSNGGRTYYADSVKGRFTISRDNAKNTVYLQMNSLKPEDTAVYYCNAARRAYGYNYWGQGTQVTVSS” is “low polyreactivity”; for “QVQLVESGGGLVQAGGSLRLSCAASGRTFSGYAMGWYRQAPGKEREFVAAISRSGGSTYYADSVKGRFTISRDNAKNTVYLQMNSLKPEDIAVYYCAAQIWYSKRLAYKAYDYWGQGTQVTVSS” it is “high polyreactivity”.
Next, “QVQLVESGGGLVQAGGSLRLSCAASGIIFGLNDMGWYRQAPGKERELVADITYSGGSTYYADSVKGRFTISRDNAKNTVYLQMNSLKPEDTAVYYCAADEVSFWGYIYDYWGQGTQVTVSS”: “high polyreactivity”.
Consider “QVQLVESGGGLVQAGGSLRISCAASGSISVYNAMGWYRQAPGKERELVAAISWSGGRTSYADSVKGRFTISRDNAKKTVYLQMNSLKPEDTEVYYCAADELTVLWDEDYWGQGTQVTVSS”, for which the “polyreactivity (PSR sort gate)” value was “low polyreactivity”.
As for “QVQLVESGGGLVQAGGSLRLSCAASGSISYVNAMGWYRQAPGKERELVAAITGGGSTNYADSVKGRFTISRDNAKNTVYLQMNSLKPEDTAVYYCNSGDSTGEVIGDYWGQGTQVTVSS”, the “polyreactivity (PSR sort gate)” value is “low polyreactivity”.
In the case of “QVQLEESGGGLVQAGGSLRLSCAASGSTFKYYAMGWYRQAPGKERELVAAISWSGGSTYYADSVKGRFTISRDNAKNTVYLQMNRLKPEDTAVYYCNKLIYDEDEYWGQGTQVTVSS”, the “polyreactivity (PSR sort gate)” value is listed as “high polyreactivity”.
The entry for “QVQLVESGGGLVQAGGSLRLSCAASGSIFKRNPMGRYRQAPGKERELVAGISRRAGSTYYADYVKGRFTISRDNAKNTDYLQMNSLKPEDTAVYYCATYSFRGTYRYDYWGQGTQVTVSS” is “high polyreactivity”; for “QVQLVESGGGLVQAGGSLRLSCAASGITFGIYAMGWDRQAPGKERELVAAISLSGGSTYYADSVKGRFTISRDNAKNTVYLQMNSVKPEDTAVYYCNARRNRYGEYYWGQGTQVTVSS” it is “high polyreactivity”.
The entry for “QVQLVESAGGLVQAGGSLRLSCAATGFTFYTYAMGWYRQAPGKERELVADISSGGSTNYADSVKGRFTISRDNAKNTVYLQMNSLKPEDTAVYYSSAVYYFLDWYDYWGQGTQVNVSS” is “low polyreactivity”; for “QVQLVESGGGLVQAGGSLRLSCAASGSIFSSNAMGWYIQAPGKERELVASIDGGPTTYADSVKGRFTISRDNAKNTVYLQMNSLKPEDTAVYYCNADSLDGPKFDYWGQGTQVTVSS” it is “low polyreactivity”.
Next, “QVQLVESGGGLVQAGGSLRLSCAASGRTFGQYAMGWYRQAPGKERELVAAITTRGGSTYYADSVKGRFTISRDNAKNTVYLQMNSLKPEDTAVYYCIADYPVKRRRGRDYWGQGTQVTVSS”: “high polyreactivity”; “QVQLVESGGGLVQAGGSLRLSCAASGIIFSFYAMGWYRQAPGKERELVAAISRSGGSTYYADSVKGRFTISRDNEKNSVYLQMNSLKPEDTAVYYCNADNGASYYYRRYDSLGQGTQVTVSS”: “high polyreactivity”.
In the case of “QDQHVESGGGLVQAGGSLRLICAASGFIFVTNTMGWYRQAPGTEWELVAAIRWSGGTTYYADSVKGRFTISRDNAMQTVYLQMNSLKPEDTAFYYCAARYGSRSSYLAYYYWGQGTQVTVSS”, the “polyreactivity (PSR sort gate)” value is “high polyreactivity”.
As for “QVQLVESGGGLVQAGGSLRLSCAASGSIFGYYAMGWYRQAPGKERELVAAISYGGGRTYYADSVKGRFTISRDNAKNTVYLQMNSLKPEDTAVYYCAADVQSRYVGEGDYWGQGTQVTVSS”, the “polyreactivity (PSR sort gate)” value is reported as “high polyreactivity”.
Next, “QVQLVESGGGLVQAGGSLRLSCAASGFIFRRYAMGWYRQAPGKERELVAAISSGGRTYYADSVKGRFTISRDNAKNTVYLQMNSLKPEDTAVYYCAAYSPYLRSWYDYWGQGTQVTVSS”: “high polyreactivity”.
Next, “QVQLVESGGGLVQAGGSLRLSCAASGRIFDDNAMGWYRQAPGKERELVASITVSTGSTYYADSVKGRFTISRDNAKNTVYLQMNSLKPEDTAVSYCAAPYITPYGTYVFSSDYWGQGTQVTVSS”: “low polyreactivity”; “QVQLVESGGGLVQAGGSLRVSCAASGSTFDPNAMGWYRQATGKERELVADIDSGGSTYYADSVKGRFTISRDNAKNTVYLQMNSMKPEDTAVYYCATKQPTWVPRVIISYTKFDYWGQGTQVTVSS”: “low polyreactivity”; “QVQLVESGGGLVQAGGSLRLSCAASGRTFIYYAMGWYRQAPGKERELVAAITNRGGRTYYADSVKWRFTISRDNAKYTVYLQMNSLKPEDTAVYYCNRVGTYHSYDYWGQGTQVTVSS”: “high polyreactivity”.
As for “QVQLVESGRGLVQAGGSLRLSCAASGSILVFYAMGWYRQAPGKERELVATITGSVGRTSYADSVKGRFTISRDNAKNTVYLQMNSLKPEDSAVYYCAADADTDVFYILQEYDYWGQGTQVTVSS”, the “polyreactivity (PSR sort gate)” value is “low polyreactivity”.
The entry for “QVQLLESGGGLVQAGGSLRLSCAASGSTFDDYAMGWYRQAPGKEREFVAAIDWSGGSTYYADSVKGRFTISRDNAKNTVYLQMNSLKPEDTAVYYCNADPDGSFDYWGQGTQVTVSS” is “low polyreactivity”; for “QVQLVESGGGLVQAGGSLRLSCAASGITSRRYAMGWYRKAPGKEREFVAAIRTICGSTYYADSVKGRFTISRDNAKNTVYLQMNSLKPEDTAVYYCAARYFLSRSGASHLDSWGQGTQVTVSS” it is “high polyreactivity”.
In the case of “QVHLVESGGGLVQAGGSLRLSCAASGRTFYVYAMGWYIQAPGKERELVATITSRGGRTYYADSVKGRFTISRDNAKNTVYLQMNSLKPEDTAVYYCNAAWWKVSYVRQKYYYWGQGTQVTVSS”, the “polyreactivity (PSR sort gate)” value is “high polyreactivity”.
Next, “QVQLVESGGGLVQAGGSLRLSCAASGSTFTPNDMGWYRQAPGKERELVAAINSGGGRTYYADSVKGRFTISRDNAKNTVYLQMNSLKPEDTAVYYCAKRLYISGYGYGYWGQGTQVTVSS”: “high polyreactivity”; “QVQLVDSVGGLVQAGGSLRLSCAASGSTFVYNTMGWYRQEPGKEREMVAAISYRGSTYYADSVKGRFTISRENAKNTVFLQMNSLKPEDNAVYYCNAPRRQYEYDYWGQGTQVTVSS”: “high polyreactivity”; “QVQLVESGGGLVQAGGSLRLSCAAAGRISVFYTMGWYRQAPGKERVLVAVIRTSGGRTNYADSVKGRFTISRDNAKNTVYLQMNSLKPEDTAVYYWDADAVIEWTEWYSAWWYYYWGQGTQVTVSS”: “low polyreactivity”.
Next, “QVQLVESGGGLVQAGGSLRLSCAASGFTFVYYAMGWYRPAPGKERELVAAISRGGSTYYADSVKGRFTISRDNAKNTVYLQMNSLKPEDTAVYYCNAKKSGLYVSYPAYDYWGQGTQVTVSS”: “low polyreactivity”.
In the case of “QVQLVESGGGLVQAGGSLRLSCAASGRILHGYAMGWYRQAPGKERELVAAITSSGGRTYYADSVKGRFTISRDNAKNPVYLQMNSLKPEDTAVYYCAADRPAYRTGESKYDYWGQGTQVTVSS”, the “polyreactivity (PSR sort gate)” value is listed as “low polyreactivity”.
Next, “QVQLVESGGGLVQAGGSLRLSCAASGGTLKYYAMGWYRQAPGKEREVVATISSRGGSTYYADSVKGRFTISRDNAKNTVYLQMNSLKPEDTAVYYCARRYWVQSRYPEMDYWGQGTQVTVSS”: “high polyreactivity”; “QVQLVESGGGLVQAGGSLRLSCAASGSTFYRYAMGWYRQAPGKERELVAAISSSGGRTYYADSVKGRFTISRDNAKKTVYLQMNSLKPEDTAVYYCAAKNAAYARYYYWGQGTQVTVSS”: “high polyreactivity”; “QLQLVESGRGLVQAGGSLRLSCAASGFTFRTYAKGWYRQAPGKERELVAAITVSGGTYYADSVKGRFTISRDNAKNTVYLQMNSLKPEDTAVYYCTAKRFRTGFDYWGQGTQVTVSS”: “low polyreactivity”.
The entry for “QVQLVESGGGLVQAGGSLRLSCAASGIIFPYYAMGWYRQAPGKERELVAAISIDGSTNYAVSVKGRFTISRDNAKNTVYLQMNSLKPEDTAVYYCNTTAFSTYQVGFLYDYWGQGTQVTVSS” is “low polyreactivity”; for “QVQLVESGGGLVQAGGSLRLSCAASGFIFPKNAMGWYRQAPGKERELVAAISKRGGSTYYADSVKGRFTISRDNAKNTVYLQMNSLKPEDTAVYYCADGYRTRRGLGYYYWGQGTQVTVSS” it is “high polyreactivity”; for “QVQLVESGGGLVQAGGSLRLSCAASGRTFEYYAMGWYRQAPGKEREFVAAISRSGGSTYYADSVKGRFTISRDNAKNTVYLQMNSLKPEDTAVYYCAASAIRRSQRFYHWGQGTQVTVSS” it is “high polyreactivity”.
Next, “QVQLVESGGGLVQAGGSLRLSCAASGRTLNAYAMGWYRHAPGKERELVAAITWDDGSTYYAHSVKGRFTISRDNAKNTVSLQMNSLKPEDSAVYYCAAYAYNAIEYGYWGQGTQVNVSS”: “low polyreactivity”; “QVQLVESGGGLVQAGGSLRLSCAASGSIFVFYAMGWYRQAPGKERELVASITRSGVSTYYADSVKGRFTISRDNAKNTVYLQMNSLKPEDTAVYYCNVYKGNVVEHDYWGQGTQVTVSS”: “high polyreactivity”; “QVQLVESGGGLVQAGGSLRLSCAASGGIFYRYAMGWYRQAPGKERELVAAITSSGGSTYYADSVKGRFTISRDNAKNTVYLQMNSLKPEDTAVYYCAADYGYYGAGSYFDRGDYWGQGTQVTVSS”: “high polyreactivity”.
As to “QLQLQESGGGLVQAGGSLRLSCAASGSISHYIFMGWYRKAPGKEREFVAGIGYGGTTNYADSVKGRFTISRDNAINNVYLQMNSLKPEDTAMYYCAAREATEFYLYYWGQGTQVTVSS”, the “polyreactivity (PSR sort gate)” value was “low polyreactivity”.
With “QVQLVESGGGIVQAGGSLRLICAASGRIFPYNVMGWYRQAPGKERELVAAISSGGTTDYADSVKGRFTISRDNAKNTVYLQMNSLKPEDTAVYYCAATYVYWTWGYDYWGQGTQVTVSS”, the “polyreactivity (PSR sort gate)” value was “low polyreactivity”.
Next, “QVQLVESGGGLVQAGGSLRLSCAASGSTFSRYAMGWYRQAPGKERELVAAISSSGGGTYYADSVKGRFTISRDNAKNTVYLQMNSLKPEDTAVYYCAAKRVHGATGYWGQGTQVTVSS”: “high polyreactivity”.
